# Measurements reported in patent US20220048967A1 (published 2022).
# Numbered stars: 1 amine (or outer) side, 2 acyl side, 3 side chain; on linkers, the order of the positions; unused ones are H or OH. Square brackets hold non-standard residues; d marks the D form. Side chains are listed from the residue outwards. Ends that are not written are not given here. * marks the point of attachment. C20 diacid = O=C(O)CCCCCCCCCCCCCCCCCCC(=O)*; C18 diacid = O=C(O)CCCCCCCCCCCCCCCCC(=O)*; γGlu = O=C(O)[C@H](CCC(=O)[*:2])N[*:1]; αMeF = C[C@](N)(Cc1ccccc1)C(=O)O; αMeP = C[C@@]1(C(=O)O)CCCN1; AEEA = NCCOCCOCC(=O)O; Aib = CC(C)(N)C(=O)O
# T1: human gastric inhibitory peptide receptor (GIPR) (human, UniProt P48546 22-466)
# T1 sequence (looked up): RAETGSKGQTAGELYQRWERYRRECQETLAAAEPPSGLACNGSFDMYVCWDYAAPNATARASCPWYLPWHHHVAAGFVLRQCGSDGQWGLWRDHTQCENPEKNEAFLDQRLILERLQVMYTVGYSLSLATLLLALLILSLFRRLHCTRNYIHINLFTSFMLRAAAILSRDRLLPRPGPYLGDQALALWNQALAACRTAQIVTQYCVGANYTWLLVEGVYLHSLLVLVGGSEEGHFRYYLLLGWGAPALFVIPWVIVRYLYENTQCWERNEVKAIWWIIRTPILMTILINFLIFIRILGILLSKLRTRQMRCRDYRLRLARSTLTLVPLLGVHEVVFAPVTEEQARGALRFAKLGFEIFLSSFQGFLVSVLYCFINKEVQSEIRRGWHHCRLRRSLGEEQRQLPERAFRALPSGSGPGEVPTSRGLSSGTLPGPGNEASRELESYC
# Experiments:
# Test in all cases: cell-based or functional assay
# [1] = molecular target: T1, human gastric inhibitory peptide …
# [2] = molecular target: human GLP-1 receptor (GLP-1R) (human, UniProt P43220 24-463)
# [3] = molecular target: Pro-Link-tagged Human GLP-1R (human, UniProt P43220 24-463)
# [4] = molecular target: human GLP-1 receptor (human, UniProt P43220 24-463)
Binder,hGIPR cAMP EC50 ratio [1],hGIPR cAMP Rel EC50 [1] [nM],hGLP1R cAMP EC50 ratio [2],hGLP1R cAMP Rel EC50 [2] [nM],hGLP1R B-Arrestin2 Rel EC50 [3] [nM],hGLP1R B-Arrestin2 % Top [3] [%],further results
YXEGTXTSDXSILLDXKAQXEFIXYLIEGGPSSGAPPPS (Y-Aib-EGT-αMeF(2F)-TSD-4Pal-SILLD-Dab-K((2-[2-(2-Amino-ethoxy)-ethoxy]-acetyl)2-(γ-Glu)-CO-(CH2)16-CO2H)AQ-Aib-EFI-(D-Glu)-YLIEGGPSSGAPPPS-NH2) [Example 234],3.83,0.0372,0.317,0.0926,,,
YXEGTXTSDYSIXLDEKAQXEFIXYLIEGGPSSGAPPPS (Y-Aib-EGT-αMeF(2F)-TSDYSI-Aib-LDEK((2-[2-(2-Amino-ethoxy)-ethoxy]-acetyl)2-(γ-Glu)-CO-(CH2)18-CO2H)AQ-Aib-EFI-(D-Glu)-YLIEGGPSSGAPPPS-NH2) [Example 224],3.52,0.0545,1.06,0.0349,,,
"XXEGTFTSDYSIXLDKKAQXAFIXYLIEGGPSSGAPPPS (D-Tyr1, Aib2, αMeL13, K17 conjugated to (2-[2-(2-Amino-ethoxy)-ethoxy]-acetyl)2-(γ-Glu)-CO-(CH2)18-CO2H, Aib20, D-Glu24, C-terminal amide (NH2)) [Example 356]",,,,,> 10500,,
"XXEGTFTSDYSIXLDXKAQXAFIXYLIEGGPSSGAPPPS (D-Tyr1, Aib2, αMeL13, Orn16, K17 conjugated to (2-[2-(2-Amino-ethoxy)-ethoxy]-acetyl)2-(γ-Glu)-CO-(CH2)18-CO2H, Aib20, D-Glu24, C-terminal amide (NH2)) [Example 357]",,,,,118,18.2,
"YXEGTXTSDYSIXLDXKAQXEFIXYLIEGGPSSGAPPPS (Aib2, αMeF(2F)6, αMeL13, Orn16, K17 conjugated to (2-[2-(2-Amino-ethoxy)-ethoxy]-acetyl)2-(γ-Glu)-CO-(CH2)16-CO2H, Aib20, D-Glu24, C-terminal amide (NH2)) [Example 2]",,,,,8.82,96.1,hGLP1R GTPgS % Top [4]: 95.9%; hGLP1R GTPgS Rel EC50 [4]: 0.642 nM
Y[Aib]EGT[αMeF]TSDYSIXLDKK([AEEA-AEEA-γGlu-C20 diacid])AQ[Aib]EFI[dE]YLIEGGPSSG-NH2 (not fully specified (residue 13); printed as Y-Aib-EGT-αMeF-TSDYSI-αMeF-LDKK((2-[2-(2-Amino-ethoxy)-ethoxy]-acetyl)2-(γ-Glu)-CO-(CH2)18-CO2H)AQ-Aib-EFI-(D-Glu)-YLIEGGPSSG-NH2) [Example 228],3.86,0.0503,1.1,0.0282,,,
Y[αMeP]EGTFTSDYSILLDEK([AEEA-AEEA-γGlu-C18 diacid])AQQAFIEYLIEGGPSSG-NH2 (N-terminus assumed; SMILES CC[C@H](C)[C@H](NC(=O)[C@H](CC(C)C)NC(=O)[C@H](Cc1ccc(O)cc1)NC(=O)[C@H](CCC(=O)O)NC(=O)[C@@H](NC(=O)[C@H](Cc1ccccc1)NC(=O)[C@H](C)NC(=O)[C@H](CCC(N)=O)NC(=O)[C@H](CCC(N)=O)NC(=O)[C@H](C)NC(=O)[C@H](CCCCNC(=O)COCCOCCNC(=O)COCCOCCNC(=O)CC[C@H](NC(=O)CCCCCCCCCCCCCCCCC(=O)O)C(=O)O)NC(=O)[C@H](CCC(=O)O)NC(=O)[C@H](CC(=O)O)NC(=O)[C@H](CC(C)C)NC(=O)[C@H](CC(C)C)NC(=O)[C@@H](NC(=O)[C@H](CO)NC(=O)[C@H](Cc1ccc(O)cc1)NC(=O)[C@H](CC(=O)O)NC(=O)[C@H](CO)NC(=O)[C@@H](NC(=O)[C@H](Cc1ccccc1)NC(=O)[C@@H](NC(=O)CNC(=O)[C@H](CCC(=O)O)NC(=O)[C@]1(C)CCCN1C(=O)[C@@H](N)Cc1ccc(O)cc1)[C@@H](C)O)[C@@H](C)O)[C@@H](C)CC)[C@@H](C)CC)C(=O)N[C@@H](CCC(=O)O)C(=O)NCC(=O)NCC(=O)N1CCC[C@H]1C(=O)N[C@@H](CO)C(=O)N[C@@H](CO)C(=O)NCC(N)=O) [Example 197],0.855,0.211,0.189,0.248,,,
"XXEGTFTSDYSIXLDXKAQXAFVEYLIEGGPSSGAPPPS (D-Tyr1, Aib2, αMeL13, Orn16, K17 conjugated to (2-[2-(2-Amino-ethoxy)-ethoxy]-acetyl)2-(γ-Glu)-CO-(CH2)18-CO2H, Aib20, C-terminal amide (NH2)) [Example 360]",,,,,39.5,25.8,
"XXEGTFTSDYSIXLDXKAQXAFVXYLIAGGPSSGAPPPS (D-Tyr1, Aib2, αMeL13, Orn16, K17 conjugated to (2-[2-(2-Amino-ethoxy)-ethoxy]-acetyl)2-(γ-Glu)-CO-(CH2)18-CO2H, Aib20, D-Glu24, C-terminal amide (NH2)) [Example 362]",,,,,> 11000,,
"XXEGTFTSDYSIXLDXKAQXAFVXYLIAGGPSSGAPPPS (D-Tyr1, Aib2, αMeL13, Orn16, K17 conjugated to (2-[2-(2-Amino-ethoxy)-ethoxy]-acetyl)2-(γ-Glu)-CO-(CH2)16-CO2H, Aib20, D-Glu24, C-terminal amide (NH2)) [Example 364]",,,,,> 12000,,
